Columns and labels:
[1] = target: GST-TET2 CR (cysteine-rich domain of TET2, residues 1129-1322, fused to glutathione S-transferase), wild type (UniProt Q6N021); assay: MST; microscale thermophoresis, Monolith NT.115, analysed by PRISM; biotinylated histone H3 peptides with GST-TET2 CR wild type or W1291R
GST-TET2 CR W1291R = GST-TET2 CR W1291R (UniProt Q6N021); assay: as above
[2] = target: GST-TET2 CR (cysteine-rich domain of TET2, residues 1129-1322, fused to glutathione S-transferase), wild type (UniProt Q6N021); assay: MST; microscale thermophoresis, Monolith NT.115, analysed by PRISM; mononucleosome binding to the wild-type CR domain

Kd [1] | Kd (GST-TET2 CR W1291R) | Kd [2] | Substance
688 nM | 11000 nM |  | histone H3_(21-44) K36me1 peptide (from UniProt P68431 22-45)
734 nM | 27500 nM |  | histone H3_(21-44) K36me2 peptide (from UniProt P68431 22-45)
21000 nM | 946 nM |  | histone H3_(21-44) unmodified peptide (from UniProt P68431 22-45)
 |  | 387 nM | mononucleosome (complex)
